Assay results published in article PMC7344267.

Molecular target: T1, Nt^17 peptide, the seventeen-residue N-terminal region of huntingtin (htt)
T1 chain: MATLEKLMKAFESLKSF
Experiment: native MS
Settings: remark: other sources report otherwise

normalized collision energy for 50% signal decay of the complex: 20 NCE
stoichiometry N: 4
Binder: MATLEKLMKAFESLKSF [Nt^17 peptide, the seventeen-residue N-terminal region of huntingtin (htt)]
